Laboratory results published in patent US20240025992A1 (Janssen / Centocor, published 2024).

T1: DL3W35, extracellular domain of human DLL3 linked to a C-terminal 6xHis-Tag and a linker (human, UniProt Q9NYJ7 27-479)
T1 construct: also called human DLL3 ECD; huDLL3
T1 sequence: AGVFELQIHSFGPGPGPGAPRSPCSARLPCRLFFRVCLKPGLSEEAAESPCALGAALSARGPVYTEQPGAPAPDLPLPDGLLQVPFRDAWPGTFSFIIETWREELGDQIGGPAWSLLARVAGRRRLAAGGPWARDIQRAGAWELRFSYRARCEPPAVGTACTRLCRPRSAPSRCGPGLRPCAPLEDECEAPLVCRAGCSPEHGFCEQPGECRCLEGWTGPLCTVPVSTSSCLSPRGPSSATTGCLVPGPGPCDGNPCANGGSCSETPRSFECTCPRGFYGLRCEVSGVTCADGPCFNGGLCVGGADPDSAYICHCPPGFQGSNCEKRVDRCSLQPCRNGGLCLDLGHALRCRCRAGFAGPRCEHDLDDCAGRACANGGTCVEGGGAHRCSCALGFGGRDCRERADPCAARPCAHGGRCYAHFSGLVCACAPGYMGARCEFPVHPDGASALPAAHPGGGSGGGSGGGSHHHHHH

T2: DL3W33, Recombinant Human DLL1 ECD (Ser22-Gly540), -DI-C-6xHis (human, UniProt O00548 22-540)
T2 construct: also called huDLL1; TPP000049465
T2 sequence: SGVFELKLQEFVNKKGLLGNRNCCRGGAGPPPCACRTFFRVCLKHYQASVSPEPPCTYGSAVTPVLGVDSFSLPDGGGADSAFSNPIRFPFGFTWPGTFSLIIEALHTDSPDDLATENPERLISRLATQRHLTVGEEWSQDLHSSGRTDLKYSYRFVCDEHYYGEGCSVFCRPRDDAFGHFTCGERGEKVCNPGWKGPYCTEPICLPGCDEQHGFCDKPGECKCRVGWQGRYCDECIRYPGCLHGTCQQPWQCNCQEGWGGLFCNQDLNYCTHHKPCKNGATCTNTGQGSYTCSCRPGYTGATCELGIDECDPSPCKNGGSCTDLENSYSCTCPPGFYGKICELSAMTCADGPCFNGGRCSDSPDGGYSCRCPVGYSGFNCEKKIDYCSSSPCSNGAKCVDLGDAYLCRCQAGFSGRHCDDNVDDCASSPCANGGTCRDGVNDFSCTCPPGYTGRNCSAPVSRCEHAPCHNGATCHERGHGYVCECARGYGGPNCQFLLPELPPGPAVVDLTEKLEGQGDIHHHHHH

T3: human DLL3 on DLL3+ tumor cells (human, UniProt Q9NYJ7 27-618)
T3 sequence: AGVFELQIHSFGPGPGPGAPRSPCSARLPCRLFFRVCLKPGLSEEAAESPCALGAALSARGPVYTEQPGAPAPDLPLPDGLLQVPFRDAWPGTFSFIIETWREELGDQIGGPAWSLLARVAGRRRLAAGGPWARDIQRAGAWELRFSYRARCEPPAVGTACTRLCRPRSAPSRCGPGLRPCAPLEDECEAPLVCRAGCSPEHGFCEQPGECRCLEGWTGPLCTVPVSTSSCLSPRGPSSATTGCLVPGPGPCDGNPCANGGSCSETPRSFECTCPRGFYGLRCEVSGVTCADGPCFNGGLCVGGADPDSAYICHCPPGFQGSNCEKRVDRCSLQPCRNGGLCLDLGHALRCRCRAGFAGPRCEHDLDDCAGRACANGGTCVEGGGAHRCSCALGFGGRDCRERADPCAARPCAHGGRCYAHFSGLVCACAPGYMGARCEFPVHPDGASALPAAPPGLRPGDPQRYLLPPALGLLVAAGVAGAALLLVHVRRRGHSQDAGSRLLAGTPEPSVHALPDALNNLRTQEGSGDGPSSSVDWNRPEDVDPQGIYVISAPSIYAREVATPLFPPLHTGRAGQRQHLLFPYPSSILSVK

T4: recombinant human DLL3 (Example 9, construct not named) (human, UniProt Q9NYJ7 27-492, limits assumed)
T4 construct: also called DLL3 antigen
T4 sequence: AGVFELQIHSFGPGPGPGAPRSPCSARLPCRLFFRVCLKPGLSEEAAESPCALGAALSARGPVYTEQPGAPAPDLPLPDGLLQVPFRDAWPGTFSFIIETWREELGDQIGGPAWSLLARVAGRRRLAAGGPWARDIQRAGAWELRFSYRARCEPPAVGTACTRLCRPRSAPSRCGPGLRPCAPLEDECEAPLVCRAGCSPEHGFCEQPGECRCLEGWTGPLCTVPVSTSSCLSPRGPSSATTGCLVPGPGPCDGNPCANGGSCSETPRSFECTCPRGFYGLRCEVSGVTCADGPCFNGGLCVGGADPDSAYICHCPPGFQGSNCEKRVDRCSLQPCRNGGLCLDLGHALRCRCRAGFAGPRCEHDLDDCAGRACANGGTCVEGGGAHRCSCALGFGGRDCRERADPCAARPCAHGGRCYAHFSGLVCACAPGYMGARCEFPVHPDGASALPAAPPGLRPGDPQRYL


Columns and labels:
[1] = molecular target: T5, DL3W37, human DLL3 EGF6 domain, HSA Fusion and C-term 6His tag (human); assay: MSD plate binding assay on coated DLL3 domain-HSA fusions
T5 construct: Fusion with the C34S variant of human serum albumin at the C-terminus of the DLL3 subdomain, plus 6xHis
Protocol: The plates were washed with PBS with 0.1% Tween and then blocked with Starting block solution for 30 minutes. […] Antigen bound antibody was detected with sulfo-tagged anti-human antibody (Meso Scale Discovery, R32AJ) for 60 minutes at ambient temperature followed by another PBS wash. Signal acquisition was done in the presence of 1× MSD read buffer T (MSD, Cat #R92TC-1) on the MSD Sector 600 imager with appropriate plate settings. Data was analyzed for the highest binding signal per domain indicating the preferential domain binding.

[2] = molecular target: T1, DL3W35, extracellular domain of human …; assay: SPR (ProteOn), antibody captured by anti-Fc, DLL3 (DL3W35) titrated
Protocol: (§1) The association and dissociation were monitored for 5 and 30 minutes, respectively, using a flow rate of 50 μL/min. Kinetic information (on-rate and off-rate constants) were extracted by fitting sensorgrams to the 1:1 Langmuir binding model. Binding affinity (KD) are reported as the ratio of rate constants (koff/kon).

[3] = molecular target: T2, DL3W33, Recombinant Human DLL1 ECD …; assay: SPR (ProteOn), antibody captured by anti-Fc; DLL1 at 100 nM and 1000 nM
Protocol: as §1

[4] = molecular target: T6, DL3W34, human DLL4 ECD (Ser27-Pro524), C-10xHis (human, UniProt Q9NR61 27-524); assay: SPR (ProteOn), antibody captured by anti-Fc; DLL4 at 100 nM and 1000 nM
T6 construct: also called huDLL4; TPP0000494661
Protocol: as §1

[5] = molecular target: T3, human DLL3 on DLL3+ tumor cells; assay: cell-based or functional assay
[6] = molecular target: T4, recombinant human DLL3 (Example 9, …); assay: SPR (Biacore T200), antibody captured by goat anti-Fc on a C1 chip, DLL3 titrated
Protocol: The binding affinity of anti-DLL3×CD3 antibodies to the recombinant human DLL3 was determined by surface plasmon resonance (SPR) using a Biacore T200 instrument. […] The association was monitored for 2 minutes and the and dissociation for 5 or 60 minutes, using a flow rate of 100 μL/min. Raw binding data was referenced by subtracting the analyte binding signals from blanks and analyzed using a 1:1 Langmuir binding model using the Biacore Insight evaluation software to obtain the kinetics which were used to calculate the binding affinity.

T6 sequence (Q9NR61 other isoform, or with tags, fused parts or gaps limits assumed): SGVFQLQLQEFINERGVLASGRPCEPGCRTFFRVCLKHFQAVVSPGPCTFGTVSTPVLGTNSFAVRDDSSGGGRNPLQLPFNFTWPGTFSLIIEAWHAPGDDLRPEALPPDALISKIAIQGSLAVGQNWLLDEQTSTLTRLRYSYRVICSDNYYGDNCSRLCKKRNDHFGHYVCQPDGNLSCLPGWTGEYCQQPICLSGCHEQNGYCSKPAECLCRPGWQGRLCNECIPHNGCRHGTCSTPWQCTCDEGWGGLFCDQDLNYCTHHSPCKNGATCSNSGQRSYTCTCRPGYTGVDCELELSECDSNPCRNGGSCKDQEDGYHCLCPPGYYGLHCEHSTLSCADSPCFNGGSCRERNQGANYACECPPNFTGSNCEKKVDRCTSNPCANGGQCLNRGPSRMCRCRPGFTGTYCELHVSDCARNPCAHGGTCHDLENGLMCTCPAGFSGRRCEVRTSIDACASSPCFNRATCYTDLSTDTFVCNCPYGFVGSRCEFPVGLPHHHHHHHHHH
T5 sequence (chain, as listed by the source limits assumed): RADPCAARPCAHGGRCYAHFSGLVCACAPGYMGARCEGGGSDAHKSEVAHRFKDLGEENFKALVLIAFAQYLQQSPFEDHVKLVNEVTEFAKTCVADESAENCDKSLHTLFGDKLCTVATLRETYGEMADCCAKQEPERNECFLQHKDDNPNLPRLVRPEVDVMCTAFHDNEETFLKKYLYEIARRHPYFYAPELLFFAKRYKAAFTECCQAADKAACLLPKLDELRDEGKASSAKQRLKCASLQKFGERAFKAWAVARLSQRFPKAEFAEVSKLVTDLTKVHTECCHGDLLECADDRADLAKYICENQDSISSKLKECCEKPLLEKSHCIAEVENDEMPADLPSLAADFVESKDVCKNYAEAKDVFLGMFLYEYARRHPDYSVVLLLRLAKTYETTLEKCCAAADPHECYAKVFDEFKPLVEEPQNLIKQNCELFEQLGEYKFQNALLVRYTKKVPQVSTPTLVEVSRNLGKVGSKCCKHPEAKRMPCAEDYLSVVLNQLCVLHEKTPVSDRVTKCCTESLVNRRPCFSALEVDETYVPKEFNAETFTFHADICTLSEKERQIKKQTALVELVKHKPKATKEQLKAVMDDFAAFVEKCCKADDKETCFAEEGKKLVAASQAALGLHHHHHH

Binder	binding result [1]	Kd [2] [nM]	binding result [3]	binding result [4]	Kd [6] [nM]	Cytotoxicity (% Lysis), G361, whole PBMCs, 1:1 ET ratio, 30 nM [5] [%]	Cytotoxicity (% Lysis), HCC1833, whole PBMCs, 1:1 ET ratio, 30 nM [5] [%]	Cytotoxicity (% Lysis), SHP-77, whole PBMCs, 1:1 ET ratio, 30 nM [5] [%]
DL3B572 (Fc fusion, also called DL3B409 scFv-Fc; not shown: wild-type IgG1 Fc domain) scFv: EVQLVQSGAEVKKPGASVKVSCKASGYTFTTYYIHWVRQAPGQGLEWMGIIDPSGGRTSYAQKFLGRVTMTRDTSTSTVYMELRSLRSEDTAVYYCARGGDGTWYYGMDVWGQGTTVTVSSGGSEGKSSGSGSESKSTGGSDIVMTQSPSFLSASVGDRVTITCRASQGISNYLAWYQQKPGKAPKLLIYAASTLQSGVPSRFSGSGSGTEFTLTISSLQPEDFATYYCQQLNSYPLTFGGGTKVEIK	–	2.32	no binding (tested: 1000 nM)	no binding (tested: 1000 nM)	–	–	–	–
DL3B582 (bispecific antibody, DLL3 arm: DL3B279-Fab-Fc; CD3 arm: CD3W245-LH-scFv-Fc; IgG1 with L234A/L235A/D265S and heterodimerization mutations; also called CD3W245-LH-scFv; DL3B279-Fab) heavy: QVQLVQSGAEVKKPGASVKVSCKASGNTFTNYYIHWVRQAPGQGLEWMGIINPSGGSTSYAQKLQGRMTMTRDTSTSTVYMELSSLRSEDTAVYFCARQGPFIGDAFDIWGQGTMVTVSSASTKGPSVFPLAPSSKSTSGGTAALGCLVKDYFPEPVTVSWNSGALTSGVHTFPAVLQSSGLYSLSSVVTVPSSSLGTQTYICNVNHKPSNTKVDKKVEPKSCDKTHTCPPCPAPEAAGGPSVFLFPPKPKDTLMISRTPEVTCVVVSVSHEDPEVKFNWYVDGVEVHNAKTKPREEQYNSTYRVVSVLTVLHQDWLNGKEYKCKVSNKALPAPIEKTISKAKGQPREPQVYVLPPSREEMTKNQVSLLCLVKGFYPSDIAVEWESNGQPENNYLTWPPVLDSDGSFFLYSKLTVDKSRWQQGNVFSCSVMHEALHNHYTQKSLSLSPG light: DIQMTQSPSSLSASVGDRVTITCRASQGISNYLAWFQQKPGKAPKSLIYAASSLQSGVPSKFSGSGSGTDFTLTISSLQPEDFATYYCQQYNSYPYTFAQGTKLEIKRTVAAPSVFIFPPSDEQLKSGTASVVCLLNNFYPREAKVQWKVDNALQSGNSQESVTEQDSKDSTYSLSSTLTLSKADYEKHKVYACEVTHQGLSSPVTKSFNRGEC scFv: DIQMTQSPSSLSASVGDRVTITCRARQSIGTAIHWYQQKPGKAPKLLIKYASESISGVPSRFSGSGSGTDFTLTISSLQPEDFATYYCQQSGSWPYTFGQGTKLEIKGGSEGKSSGSGSESKSTGGSEVQLVESGGGLVKPGGSLRLSCAASGFTFSRYNMNWVRQAPGKGLEWVSSISTSSNYIYYADSVKGRFTFSRDNAKNSLDLQMSGLRAEDTAIYYCTRGWGPFDYWGQGTLVTVSSEPKSSDKTHTCPPCPAPEAAGGPSVFLFPPKPKDTLMISRTPEVTCVVVSVSHEDPEVKFNWYVDGVEVHNAKTKPREEQYNSTYRVVSVLTVLHQDWLNGKEYKCKVSNKALPAPIEKTISKAKGQPREPQVYVYPPSREEMTKNQVSLTCLVKGFYPSDIAVEWESNGQPENNYKTTPPVLDSDGSFALVSKLTVDKSRWQQGNVFSCSVMHEALHNHYTQKSLSLSPG	–	–	–	–	0.016	98.9	93.7	87.3
DL3B583 (bispecific antibody, DLL3 arm: DL3B279-Fab-Fc; CD3 arm: CD3W245-HL-scFv-Fc; IgG1 with L234A/L235A/D265S and heterodimerization mutations; also called CD3W245-HL-scFv; DL3B279-Fab) heavy: QVQLVQSGAEVKKPGASVKVSCKASGNTFTNYYIHWVRQAPGQGLEWMGIINPSGGSTSYAQKLQGRMTMTRDTSTSTVYMELSSLRSEDTAVYFCARQGPFIGDAFDIWGQGTMVTVSSASTKGPSVFPLAPSSKSTSGGTAALGCLVKDYFPEPVTVSWNSGALTSGVHTFPAVLQSSGLYSLSSVVTVPSSSLGTQTYICNVNHKPSNTKVDKKVEPKSCDKTHTCPPCPAPEAAGGPSVFLFPPKPKDTLMISRTPEVTCVVVSVSHEDPEVKFNWYVDGVEVHNAKTKPREEQYNSTYRVVSVLTVLHQDWLNGKEYKCKVSNKALPAPIEKTISKAKGQPREPQVYVLPPSREEMTKNQVSLLCLVKGFYPSDIAVEWESNGQPENNYLTWPPVLDSDGSFFLYSKLTVDKSRWQQGNVFSCSVMHEALHNHYTQKSLSLSPG light: DIQMTQSPSSLSASVGDRVTITCRASQGISNYLAWFQQKPGKAPKSLIYAASSLQSGVPSKFSGSGSGTDFTLTISSLQPEDFATYYCQQYNSYPYTFAQGTKLEIKRTVAAPSVFIFPPSDEQLKSGTASVVCLLNNFYPREAKVQWKVDNALQSGNSQESVTEQDSKDSTYSLSSTLTLSKADYEKHKVYACEVTHQGLSSPVTKSFNRGEC scFv: EVQLVESGGGLVKPGGSLRLSCAASGFTFSRYNMNWVRQAPGKGLEWVSSISTSSNYIYYADSVKGRFTFSRDNAKNSLDLQMSGLRAEDTAIYYCTRGWGPFDYWGQGTLVTVSSGGSEGKSSGSGSESKSTGGSDIQMTQSPSSLSASVGDRVTITCRARQSIGTAIHWYQQKPGKAPKLLIKYASESISGVPSRFSGSGSGTDFTLTISSLQPEDFATYYCQQSGSWPYTFGQGTKLEIKEPKSSDKTHTCPPCPAPEAAGGPSVFLFPPKPKDTLMISRTPEVTCVVVSVSHEDPEVKFNWYVDGVEVHNAKTKPREEQYNSTYRVVSVLTVLHQDWLNGKEYKCKVSNKALPAPIEKTISKAKGQPREPQVYVYPPSREEMTKNQVSLTCLVKGFYPSDIAVEWESNGQPENNYKTTPPVLDSDGSFALVSKLTVDKSRWQQGNVFSCSVMHEALHNHYTQKSLSLSPG	–	–	–	–	0.016	98.9	88.4	99.8

Second part, led by results:

binding result [1]	Kd [2] [nM]	binding result [3]	binding result [4]	Kd [6] [nM]	Binder	Cytotoxicity (% Lysis), G361, whole PBMCs, 1:1 ET ratio, 30 nM [5] [%]	Cytotoxicity (% Lysis), HCC1833, whole PBMCs, 1:1 ET ratio, 30 nM [5] [%]	Cytotoxicity (% Lysis), SHP-77, whole PBMCs, 1:1 ET ratio, 30 nM [5] [%]
binds	0.0668	no binding (tested: 1000 nM)	no binding (tested: 1000 nM)	–	DL3B570 (Fc fusion, also called DL3B332 scFv-Fc; not shown: wild-type IgG1 Fc domain) scFv: EIVLTQSPGTLSLSPGERATLSCRASQSVSRSYLAWYQQKPGQAPRFLIYGASSRATGIPDRFSGSGSGTDFTLTISRLEPEDFAVYYCQQYGTSPITFGQGTRLEIKGGSEGKSSGSGSESKSTGGSQVQLQESGPGLVKPSETLSLSCTVSGDSIRSYYWSWIRQPPGKGLEWIGYIYYSGTTNYKSSLKSRVTISLDTSKKQFSLNLDSVTAADTAVYYCARIGPAGFYFDYWGQGTLVTVSS	–	–	–
binds	0.147	no binding (tested: 1000 nM)	no binding (tested: 1000 nM)	–	DL3B569 (Fc fusion, The conflict is not resolved; also called DL3B279 scFv-Fc; not shown: wild-type IgG1 Fc domain) scFv: DIQMTQSPSSLSASVGDRVTITCRASQGISNYLAWFQQKPGKAPKSLIYAASSLQSGVPSKFSGSGSGTDFTLTISSLQPEDFATYYCQQYNSYPYTFAQGTKLEIKGGSEGKSSGSGSESKSTGGSQVQLVQSGAEVKKPGASVKVSCKASGNTFTNYYIHWVRQAPGQGLEWMGIINPSGGSTSYAQKLQGRMTMTRDTSTSTVYMELSSLRSEDTAVYFCARQGPFIGDAFDIWGQGTMVTVSS	–	–	–
